Results reported in paper PMC12549896, “Structural basis for antibiotic resistance by chloramphenicol acetyltransferase type A in Staphylococcus aureus” (Scientific Reports, 2025).

Legend:
[1] = system: O=C(N[C@H](CO)[C@H](O)c1ccc([N+](=O)[O-])cc1)C(Cl)Cl; assay: purified protein; format: biochemical, Staphylococcus aureus; details: acetyl-CoA ([…] in assay) docked only: inter-protomer pocket; Ser140, Ser142, Tyr20, Thr25, catalytic His189
[2] = target: T1, saCAT1 (chloramphenicol acetyltransferase type A, S. aureus) (Staphylococcus aureus, UniProt P00485); assay: DTNB colorimetric acetyltransferase assay at […] nm, FA […], at […] chloramphenicol; format: biochemical
T1 construct: gene cat; residues 1-216; four amino acids (GSLE) remain at the N-terminus after thrombin cleavage; homotrimer

[3] = target: the molecule itself; assay: crystal structure; X-ray, space group P321, 1.8 Å; hanging drop at 16 °C, 0.01 M cobalt (II) chloride, 0.1 M sodium acetate pH 4.6, 1 M 1,6-hexanediol; trimer on the crystallographic 3-fold axis, interfaces analysed with PISA

saCAT1 (chloramphenicol acetyltransferase type A, S. aureus) (Staphylococcus aureus)
Km [1]: 16.9 ± 3.0 µM

CC(=O)O[C@H]1C[C@@]2(C)[C@@H](C[C@@H](O)[C@H]3[C@@]4(C)CC[C@@H](O)[C@@H](C)[C@@H]4CC[C@@]32C)/C1=C(\CCC=C(C)C)C(=O)O [FA, fusidic acid]
Ki [2]: 83.7 µM

B1: Staphylococcus aureus chloramphenicol acetyltransferase 1 (saCAT1) (enzyme)
chain: GSLEMNFNKIDLDNWKRKEIFNHYLNQQTTFSITTEIDISVLYRNIKQEGYKFYPAFIFLVTRVINSNTAFRTGYNSDGELGYWDKLEPLYTIFDGVSKTFSGIWTPVKNDFKEFYDLYLSDVEKYNGSGKLFPKTPIPENAFSLSIIPWTSFTGFNLNINNNSNYLLPIITAGKFINKGNSIYLPLSLQVHHSVCDGYHAGLFMNSIQELSDRPNDWLL
notes: four amino acids that remain at the N-terminus after thrombin cleavage of the His tag; chloramphenicol acetyltransferase encoded by the cat1 gene of Staphylococcus aureus plasmid pC194; all residues (1-216) modelled in the crystal structure; Cloned into the vector pFs91G (N-terminal 6xHis tag and thrombin site); Homotrimer in solution and in the crystal; one protomer in the asymmetric unit, the …
stoichiometry N [3]: 3
